These results are taken from article PMC5750232, “RAD54 N-terminal domain is a DNA sensor that couples ATP hydrolysis with branch migration of Holliday junctions” (Nature Communications, 2018).

One data set has as its target T1, RAD54 1-142 T31E (human, UniProt Q92698 1-142, T31E).
T1 sequence: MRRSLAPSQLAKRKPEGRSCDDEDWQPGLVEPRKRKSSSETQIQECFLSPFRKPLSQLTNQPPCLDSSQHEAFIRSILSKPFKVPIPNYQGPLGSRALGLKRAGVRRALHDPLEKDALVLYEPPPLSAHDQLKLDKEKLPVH
Nature of the data set: EMSA; no significant effect of mutation; 5 mM Mg2+, 2 mM ATP; 25 mM Tris-acetate pH 7.5, 5 mM Mg acetate, 100 ug/ml BSA, 2 mM DTT, 2 mM ATP, 10% glycerol, 4 C, 45 min; 30 nM PX junction; 6% native PAGE in 0.25x TBE. The conditions noted are these: protein: recombinant; tags: Sumo-His, cleaved; partial X junction with one ssDNA arm, 4 strands. For orientation: In EMSA bound probe runs differently from free probe, usually more slowly.

The target in a further data set is T2, RAD54 1-142 52AA53 (human, UniProt Q92698 1-142, R52A;K53A).
T2 sequence: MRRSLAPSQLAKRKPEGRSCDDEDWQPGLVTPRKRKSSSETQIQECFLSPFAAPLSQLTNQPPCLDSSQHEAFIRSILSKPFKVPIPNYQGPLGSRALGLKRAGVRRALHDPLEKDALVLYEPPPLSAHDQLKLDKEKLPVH
Nature of the data set: EMSA; similar to non-mutated 1-142; 5 mM Mg2+, 2 mM ATP; 25 mM Tris-acetate pH 7.5, 5 mM Mg acetate, 100 ug/ml BSA, 2 mM DTT, 2 mM ATP, 10% glycerol, 4 C, 45 min; 30 nM PX junction; 6% native PAGE in 0.25x TBE. The conditions noted are these: protein: recombinant; tags: Sumo-His, cleaved; partial X junction with one ssDNA arm, 4 strands.

B1: non-mobile PX junction (174/175/176/181) (structured_DNA)
DNA 1: GACGCTGCCGAATTCTACCAGTGCCTTGCTAGGACATCTTTGCCCACCTGCAGGTTCACCC
DNA 2: TGGGTGAACCTGCAGGTGGGCAAAGATGTCCTAGCAATGTAATCGTCAAGCTTTATGCCGTT
DNA 3: CAACGGCATAAAGCTTGACGATTACATTGCTAGGACATGCTGTCTAGAGGATCCGACTATCGA
DNA 4: TCGATAGTCGGATCCTCTAGACAGC
B1: the binding result with RAD54 1-142 T31E and in the data set with RAD54 1-142 52AA53 was “binds” throughout.
